# Data published in PMC10672810, “Research of Multicopper Oxidase and Its Degradation of Histamine in Lactiplantibacillus plantarum LPZN19” (Microorganisms, 2023).
# B1: MCO (multicopper oxidase) (Lactiplantibacillus plantarum WCFS1) (protein)
# chain: MAKKVYTDYFFDEPAYNTHDGGYIPLVTPKVEPQPLAIPPLLKPDRQTDTDDYYTVTAQESETQFLPGKKTKTWGYNAGFLGQTIVFRNGKQTHIDLENKLPELTTFHWHGLNVPGPITDGGCHAPVYPGETNHIDFKVHQPAATTWLHAHPCPSTATQVWKGLATMVIIKDDVEDQLPLPRNYGVDDIPLVLQDREFHDDNQFDYRADYDPDGVQGHTALVNGTVNPYFDVTTQRVRLRILDGSNRREWRLHFNDDLEFAQVASDGGILPAPVYMTKVMMTCAERDEIVVDFGQYQPGDEVTLMTDDTPLCRFRIKSFVPDDTKLPEHLVDIPDETPTPDLPVRTITMDGMDDEVALDGKKFDMSRIDARQKVGDVAIWEIRNTNSTENGMVHPFHVHGTQFRVLARNDGPVYPNEHGLKDTVGVNPGETVRIKVKFELTGVYMYHCHIIEHEDGGMMAQIESYDPQHPQTYHLMDMDTLRNAFAKEQGIKPEDVWMPGM
# notes: full length, 501 residues, no signal peptide; pET-28a EcoRI/HindIII, N-terminal His-tag (about 67 kDa on SDS-PAGE), E. coli BL21 (DE3), Ni-NTA; primers imply N-terminus MAKKVYTD and C-terminus WMPGM; peptides EFHDDNQFDYR, GLATMVIIKDDVEDOLPLPR
# Assays:
# [1] = substrate: CCn1c(=NN=c2sc3cc(S(=O)(=O)O)ccc3n2CC)sc2cc(S(=O)(=O)O)ccc21; experiment: ABTS oxidation, visible absorption, Lineweaver-Burk; type: biochemical, Lactiplantibacillus plantarum; settings: MES buffer, pH 3.5, 50 °C, 2 h
# Source text: ABTS oxidation, visible absorption, Lineweaver-Burk on MCO (multicopper oxidase)
# [2] = substrate: NCCc1c[nH]cn1; experiment: histamine degradation monitored by LC-MS; type: biochemical, Lactiplantibacillus plantarum; settings: 50 °C, pH not stated for this assay
protein,measurement,setting,value
B1,Km,[1],2180 ± 130 µM
same,kcat,[1],3.77 ± 0.09 s⁻¹
same,kcat/Km,[1],1730 ± 160 M⁻¹ s⁻¹
same,Km,[2],2070 ± 180 µM
